In paper PMC6889141, “In vivo methylation of OLA1 revealed by activity-based target profiling of NTMT1† †Electronic supplementary information (ESI) available. See DOI: 10.1039/c9sc02550b” (Chemical Science, 2019):

Biological target: T1, N-Terminal methyltransferase 1 (NTMT1), wild type (UniProt Q9BV86 1-223)
T1 construct: N-terminal methyltransferase 1 (NTMT1), wild type; they probably stand in the ESI; also called wt NTMT1
T1 sequence (looked up): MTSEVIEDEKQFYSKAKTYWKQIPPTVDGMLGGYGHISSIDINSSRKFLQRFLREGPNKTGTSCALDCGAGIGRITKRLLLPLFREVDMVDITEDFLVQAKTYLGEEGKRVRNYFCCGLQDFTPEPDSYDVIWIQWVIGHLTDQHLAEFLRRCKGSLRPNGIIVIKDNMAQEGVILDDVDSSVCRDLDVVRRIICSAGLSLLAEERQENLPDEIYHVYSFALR
Assay: ITC; affinity of RCC1 peptide with wt NTMT1; conditions, and which of the two was titrated, not told in the text shown
Details: both partners purified

B1: RCC1p, peptide of the first 10 N-terminal residues of RCC1 after initial methionine removal (peptide, UniProt P18754 2-11, looked up)
peptide: SPKRIAKRRS
notes: RCC1, the first 10 N-terminal residues after removal of the initial methionine (residues 2-11 counted with the methionine as 1); also called RCC1 peptide; source: synthetic peptide
Q: For B1, which Kd is on record?
A: 1220 ± 20 nM
